# Data: paper PMC8351524 (2021)
# T1: APOC2 (Homo sapiens, UniProt P02655)
# T1 chain: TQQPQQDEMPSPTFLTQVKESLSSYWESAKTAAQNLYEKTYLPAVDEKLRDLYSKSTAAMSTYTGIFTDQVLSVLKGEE
# Target: T1, APOC2
# Assay: biolayer interferometry
binder,measurement,value
CD36 (protein) GCDRNCGLIAGAVIGAVLAVFGGILMPVGDLLIQKTIKKQVVLEEGTIAFKNWVKTGTEVYRQFWIFDVQNPQEVMMNSSNIQVKQRGPYTYRVRFLAKENVTQDAEDNTVSFLQPNGAIFEPSLSVGTEADNFTVLNLAVAAASHIYQNQFVQMILNSLINKSKSSMFQVRTLRELLWGYRDPFLSLVPYPVTTTVGLFYPYNNTADGVYKVFNGKDNISKVAIIDTYKGKRNLSYWESHCDMINGTDAASFPPFVEKSQVLQFFSSDICRSIYAVFESDVNLKGIPVYRFVLPSKAFASPVENPDNYCFCTEKIISKNCTSYGVLDISKCKEGRPVYISLPHFLYASPDVSEPIDGLNPNEEEHRTYLDIEPITGFTLQFAKRLQVNLLVKPSEKIQVLKNLKRNYIVPILWLNETGTIGDEKANMFRSQVTGKINLLGLIEMILLSVGVVMFVAFMISYCACRSKTIK,Kd,128 nM
